# Reference: the domain aggregation screens of Martell et al. (2025)
# Assay: soluble fraction after stress (log2 fold change); higher = more stays soluble; pooled small domains, quantitative proteomics
# Conditions: stress: 50 degC
# Summary of the method: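 After stress at 50°C, the amount of each protein still soluble was measured. This was done on pooled custom libraries of small protein domains, using high-throughput quantitative proteomics. The figure given is a base-two log fold change and stands for aggregation propensity, with higher values meaning more protein stays in solution.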
row,Sequence,soluble fraction (log2)
1,HMSQVLVRINQDLNIRSGPGAQYDIIAVYRSGAIASVIGTYNNWYKVNFELDSKSYTGWINGTFTSR,-1.93
2,HMNNSSIGERLKYQRKIKGYSQEELADRTNVTVRTIQRIEKEEVSPHLNTIKLLAIALDIEVDELVAL,-1.25
3,HMQISDESQLREVVSKILEENEQSVIDYKNGKTRAMGFIIGQVMKATRGKANPQLVNEIVKEMLDE,0.097
4,HMSINQIADKGYITRLIDNNANIKDVLYYDASSRILAIEDPKYMFYLKNTDWNQFAKEMGFKLE,-0.657
5,HMSGENAVLTEGTMVTVRRGGETITATARKETVKQFLSRMDIIPGSREMVGIELMENSVMLTISD,-0.227
6,HMVRKIRARLVLQLRAEGLSGRAIAGSQGMSRKSVTAVLDAADRAGIGWDEIAERSEGEVYALLFPGRG,-1.34
7,HMAWIGEHTVTSEDTLSHIALKFYGHATPPYYKLIYEANKAIIGDNMNIIVPGQVLRIPALPEEL,-0.345
8,HMSLIDLLQLNRKSKKLTLMNLVEMTGLSYGKVYRIFNGGIDKPTPDSLKLLAKALQLDYSYLFHKAGYL,-0.161
9,HMGIDSSVYVEARYELGHLYLKQKKYAAAYASFKEILDMYASTTPGVLPGAYNKLAEIGMKRIPKNKL,-2.74
10,HMTVAEVEDRMEASRVRQALDAVGEPHRTTIALAYFTGLTHTEIAQRMGVPLGTVKSRIRDGMAKMRTHLG,-0.617
11,HMDHKSSYWSVKEANLFPELLKQFGSQWSLISDKLGTKSTTMVRNYYQRNAAQLGWKSVVEEADFKRNA,-0.436
12,HMEQISVPIFTNDELVTFARSYSGELGYKIDDMAVLALYNRISNIQRLDQATTLTEVKDIVDEAVAKSE,-0.0661
13,HMAQWGFNGSEAGDLSFQQGDVIEVVEKVKDDWWRGRVLGSTEIGLFPS,-0.225
14,HMQSLSDQVFFYLKERIINNEMVPGSIISIEKLTSEFGISNTPVREAIVRLAGLDLVTIHRNKNITVS,-2.39
15,HMSETTSRVLQLLGLLQARRVWTGQELADRLGVTGRSVRRDIERLRDLGYPVHASKGRDGGYQLGA,-1.01
16,HMAYQQITIKANVVNVRQGPGLSYDVMSQANKGETMNVISQKNNWYQVRLSGDKIGWVASWLVDNT,-1
17,HMAGHKVDFSELPARSQAFIGKNFPTEMVKNVEMERKDAKDHYTVLLSNGTKVMFDGTSGELTGV,0.0973
18,HMLRLLEIIAGNEVSKEINSQVIKYYKALKNKKIEEINNLTPSYNKLIISFDLKKKNFREMKKIIEDISIN,-0.162
19,HMGNKWALLVVFILNENGSTRFNQLARQIPDISTKVLSNTLQILEADGLVKRTVFPEVPIRVEYELTATGK,-3.64
20,HMGTHPGIDSGIISDILALKKELPTRSAAKIITMLTLAGKMEENSIHVKTVNRILYQYGYTRDTLS,-1.88
21,HMDNQYGVYSDEKNNVEIHWKRIDHPSVAKDHLDIEAYQNGKRVDINNQQADHYRYLINQEMNE,0.0952
22,HMTTYVNGSWSGWNGSTVVKLTDGSVWRQAEYHYEYHYAYRPQARLERDELFVEGMSRGVRV,-0.104
23,HMSSPPNPQLAKRYISYSVDDIARLFGIHRHTVREWIKRGLPVIDQQRPLLVQGADLAEFLRKRRA,-0.719
24,HMYMWQVEDLIRANGLDIERIKDSIIRPYELDEERKRELTQWYEDLIDMMRREGVAQSGHLQIN,-2.45
25,HMSDKTSLTDDDKALINSMLPDYDKYPSVAKLQAVEIAKSSSKMATLLMLDERYNETVSEALE,0.0209
26,HMRDFLMDSTKNKLSKDQVQLSRIFLWFGNDFGSKAERLEFISRYSGMDFNQPKIDYLTYDWSLNQ,0.278

row,Sequence,soluble fraction (log2)
1,HMNNTVLSSVKSINMFLDANGGDAGQAFRIYNNTNPDSNPTESTYIFKVAEDGNTFVKGYLNLNGTTL,0.014
2,HMADVPSTIFEAYRILGLNPEAPPVAVKKVVDALRMSWHPDHARSEPDRRHREERIKQINAAWDLLKGV,0.148
3,HMIANNFDEFVEKVSEAERKALNMPAGQEMTQKLLEMKLAANPNLTPEEWQRTKSEFMTFLFAVFVRE,-0.842
4,HMAEKGIGRVNADWLNMRTSPGGEVLTVLKQGTELQVIGRSGSWLEVQHGNEQGYVSSRYITIQP,-0.17
5,HMEQIGSIIKDIRKKNNLTQNEFASILGVTFQAVSKWENDKSIPDITILKDISNKFNVDLNYLISG,-0.0472
6,HMADVIKLVNTSVLNVRSGAGINYSKIGSLTQGTKVNIISESNGWSKINYNGKIGYISSQYVSEVS,-0.206
7,HMLQEHVLEIRHPSWNDAFRIIGHDGWRTQTGAHAAILSYDEEELNIKWDSWGYERFIRDEKGIFRLAA,-0.055
8,HMIGIRLKELVLKNQSAWVGLRVSELDISRKTMIVMIRRGDKMLIPNGSTILRSGDVLLLYTR,-0.452
9,HMSSSTFVGRVAVITIGEARQNSPAEARFKDRHGTTHYVMVEPMEDVVFKQGDKVLLVESAGATFKVIEPA,-0.585
10,HMKSVTAPLPGTVTQILVKVGDAVKAGDTVLMLEAMKMENSITAEAAGTVKAIRVEKGAQVQGGDVLIEM,0.156
11,HMEVSTDADFEAVGIRAELIPILQKLGFTTVAQLKEVKATKLFNDIPGMRKKLKLDAVQNPTLQEIEGWLK,-0.0529
12,HMNKDEFLRRLEDALSGEVPASVIRENLNYYADYLSQELGKGRTMDEIIEEIGEPNIVARTIINSAEAA,0.0708
13,HMDSDRAARLSSLTPQQFRVLRMVSEGQLNKQIAYQLNISEATVKSHVSAILQKLGVNSRTQAVILATRLD,-2.01
14,HMIEEIETQFLFDFGLIGHPNSAKIREKLSEALGIGYVNGKQLQKRLMMFGITKQQVVDVLTD,-4.94
15,HMGAAAQLLHAVVLRVPAEDTMKFVSETPELRRYLGAPLGPTAALVRPGQEQELAAALQAHGILVEFDE,-0.0602
16,HMKVRVFIERSNDGYSAYMPDDNNLPFGLTGDGKTAQEAMQDFLLARDEMKEFFIEEGKEFPEVEFDFS,-1.35
17,HMKEILVGVEPLSKKQIIIKKGIKGRSDYIIFEKKNYGLPENLKPEEVSIEIALKIIDEKKKRKA,-1.23
18,HMRFTVSDKMDMLLKSLSAGQSMPFKSLFASASTKSEVIVTFLALLELMKLNQFVVWQDQILGEIEIERR,-0.554
19,HMGQAVTMLKAGRLLANAKGTGAPVRSLEPGMLLYPTGVKEGTMWEVEDEMGNKGWVNSTLMETA,-0.212
20,HMAEWIYGKNVVKQSIEEGMVLKLILQRKEDPLFVLAQEKQIPVEILDRHKMTSLVKSDRHQGVAAQI,-0.477
21,HMTTRLLTPRQRQVFDIAIREGFYDSPRRISLTELADLLGVAKSTLSVQLQRVESTIVHTFSEEIRRRS,-2.57
22,HMTKLTPLEVNLYAKKLANDPEFGSKHIEPGESFSQAEERLRVQLSQQEYVQKYSKYLKKLKASA,0.0851
23,HMQVQHVWNRLKRPNGDVLYEINRDHPLVSASLDAAADRGAIETLLRQIEQSLPVNQLYVDMNADEHFE,-0.301
24,HMRKPDLTSVRTLIRSVSKLARHLKISPNGIYRWISVNRIPGAHVVKVANYYDVEIRDLVHLTGSD,-1.39
25,HMTAGYFTRGSHQDEVLRIQGTPSGVNKYSDHEVWNYGLSSVDISLRDRRVTEWNNISGNLKV,-0.152
26,HMTVKKLIINEDNSGRRIDNYLLSIFNSVPRSKIYNIIRKGEVRVNSSRIKPSYRLEEGDQVRIPPNLDYT,-1.04

row,Sequence,soluble fraction (log2)
1,HMDFDFHALGREIKRKRKDKGWTQEYLAQLLDRTPRSIMYMENRGQHPSLNILFKIATLLEISIDQFFF,0.194
2,HMARGTRTRAKLLAAAEVVFARYGYTEASIERITEEAGVGQGTFYLYFASKLEIFEELVDDLNR,-2.87
3,HMANKTISMTTLKLVIQQLSKGISRQSISAQYHISRNTIKKYEKRIKAMDMKIEDILKLSDEEISNLLQ,-1.68
4,HMSQSDLASAIGARVTIRLREASGGFRDIVGVLQRFGSGYGELINSKGEALTFSESEIAIWREVKA,-0.358
5,HMKMTFGENLHKLRKIYRLSQEDVASAINLKRSDIAAVEKGDRVLNDEELDKLADFIGIDIVDLL,-0.193
6,HMSKRIFPNEFQRNSPDAMVMLDKMNLSRINVDPLTKSLTLNGGGSVKTLLNGREVSAVEIAALSP,0.0444
7,HMSKTQVKSVLDDIKGIGVVRRKALIKHFNDIEAIKAAQLAELKAVAGMDSKSAQSVYDFFHK,-0.186
8,HMNNVRIEHIDTIGTVRLHKKRGVKRVSLRIHQSGEIRVTQPLYLPFSAGVLFAKSHTEWIMKQKQK,-0.000591
9,HMVVEDDTVLQAVKQAIEENPEAVSDYFEGKSKALNFLVGQVMRITRGKADPAKTNQMVVEELKNR,0.111
10,HMDLMSTNEKLLYTMRYLISKSLDGAITEEEIRRLDRLIIENSQARAYYVEYLQIHTHLRKLMQQNPELK,-1.97
11,HMFDGRSDAEKTLDLIKTAIDNILKGGAIQEYKIGTRTAKKYDMAELQVLKGEYAAMVAREKQAETMA,-0.132
12,HMIADDLKSLEGVDQDMLRDLAEAGINTRDDLAELAIDELIEITGVSTEEAEKVIMAARAHWFEEES,0.463
13,HMGLLGIYPNPVEGGSVRLLSDADLFGSRFELYDQSGKLVLNGFVTEGNFVSVKGISSGLYISVSYT,0.0024
14,HMADENIELRKAGLKVTLPRVKILQILEAAKEPHMSAEDVYKALMEANEEVGLATVYRVLTQFESAGL,-0.267
15,HMKEFIPPVLDDVLKFFSGSLLPDWENQGRLFFSHYNSQGWRKGTGVQVTDWDSLANKWILDEKIKRDARS,-0.263
16,HMEELNFYPNPAYKYINLDYVGLKEIYTVLGKKLLETYDTRINISNLNSGIYLIKFKNQALRFVK,-0.0334
17,HMNNLPDFIKQLRKENNLTQEYVASEIGVSRPTYEQIEKGKRELTISEAEKLAKIFNIPLENFLQGKKGV,0.184
18,HMTSSQLNIEELERRMMMHLEQNGFITRSIYTNLTGRLKWKATEDLKIFVEKGLIRKMGRGNQMYYVKVE,-1.7
19,HMQFETVQDAFNHYRNASLEEIESRAAEIKGIIESDPEADVRALNIEIEGLHQAKQNILEKQKTK,-0.0753
20,HMRRHLLEMNDAIGRLGRLISEDPADRDVAEVIWAALRGMVMGQMIMNEPIDWQRERRTLVEMAIGR,0.0146
21,HMGTQKVQVVNGPINVRSGPGPTFEKIGMVEDQAVYQVVSKKDDWFQISLPGNKTAWVAGWLVKEIK,0.0417
22,HMTLALKQGSTGSTVKQVQQKLKNWGYYSGAVDGIFGSGTRKAVVLFQKRNKLTADGIVGSKTLEALGIYV,-1.05
23,HMIDFIGLEAKLLSTISGEKMGNAEVIVDGNVMNIYVKSLDTSEIKFRENVLIIKQSDDKNYYLVAKP,-0.453
24,HMSFESMGLTPRQADVLTLLLQGKSNKDIARRLVLSVETVKDHVQAVLRALGVSSRTQAVLAVGQMTQQ,-0.292
